From patent US20220127365A1 (DREN BIO, published 2022)
Changes are numbered by the printed parent chain.

B1: anti-CD94 antibody ATX-124 (antibody, human IgG1, V domains shown)
VH: QVQLVQSGAEVKKPGASVKVSCKASGYTFTSYGISWVRQAPGQGLEWMGWISAYNGNTNYAQKLQGRVTMTTDTSTSTAYMEVRSLRSDDTAVYYCARDRGRFGELFFDHWGQGTLVTVSS
VL: DIVMTQSPSSVSASVGDRVTITCRASQGISNYLAWYQQKPGKAPKLLIYAASSLQSGVPSRFSGSGSGTDFTLTISSLQPEDFATYYCLQHNSYPFTFGPGTKVDIK
B2: anti-CD94 antibody ATX-123 (antibody, human IgG1, V domains shown)
VH: B1 VH with L64F, S77N, V83L, F107L, F108S, H110Y
VL: B1 VL
B3: anti-CD94 antibody ATX-122 (antibody, V domains shown)
VH: B1 VH with V18L, I34V, M48V, A53P, Q62H, K63N, T69A, V83L, T91M, H110Y
VL: B1 VL
notes: Detected with an anti-human secondary antibody
B4: anti-CD94 antibody ATX-128 (antibody, V domains shown)
VH: QVQLQESGGGLVQPGGSLKLSCAASGFTFSGSTIQWVRQASGKGLEWVGRIRSKANSYATASAASVKGRFTISRDDSKNMAYLQMNSLKTEDTAVYYCTREGLGYYNVGYYYFYMDVWGKGTTVTVSS
VL: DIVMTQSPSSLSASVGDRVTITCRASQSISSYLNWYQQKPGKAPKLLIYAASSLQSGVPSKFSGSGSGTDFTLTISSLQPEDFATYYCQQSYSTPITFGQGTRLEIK
B5: anti-CD94 antibody ATX-127 (antibody, human IgG1, V domains shown)
VH: QVQLQQSGPGLVKPSGTLSLTCAVSGGSISSRYWWTWVRQPPGKGLEWIGEIYHSGTTNYNPSLESRVTISVDKSKNQFSLKVSSVTAADTAVYYCARSPNWGYYYYYMDVWGKGTTVTVSS
VL: EIVMTQSPATLSVSPGERATLSCRASQSVSSSYLAWYQQKPGQAPRLLIYGASSRATGIPDRFSGSGSGTDFTLTISRLESEDFAVYYCQQYGRSLTFGGGTKVEIK
B6: 18H3-KIF (antibody, V domains shown)
VH: EVQLVQSGAEVKKPGESLKISCKGSGYRFTSYWIGWVRQMPGKGLEWMGIIYPGDSDTRYSPSFQGQVIISADKSITTAFLQWSSLKASDTAMYYCARPFDYGGSPGYFDYWGQGTLVTVSS
VL: DIQMTQSPSTLSASVGDRVTITCRASQSIRSWLAWYQQKPGKAPKLLIYKASSLESGVPSRFSGSGSGTEFTLTISSLQPDDFATYYCQQYNTFWTFGQGTKVEIK
B7: anti-CD94 antibody ATX-129 (antibody, human IgG1, V domains shown)
VH: EVQLVQSGGGLVQPGGSLRLSCAASGFTFSSYWMSWVRQAPGKGLEWVANIKQDGSAKYYVDSVKGRFTISRDNAKNSLYLQMNSLRAEDTAVYYCARGYYFDYWGQGTLVTVSS
VL: EIVLTQSPSTLSASVGDRVTITCRVSQGISSYLNWYRQKPGKVPKLLIYAASSLQSGVPSRFSGSGSGTDFTLTISSLQPEDFATYYCQQSYSTPITFGQGTRLEIK

Legend:
[1] = biological target: T1, human CD94 (human, UniProt Q13241 1-179); test: HLA-E tetramer blocking on healthy-donor PBMCs, flow cytometry; competitor HLA-E tetramer
T1 construct: whole, on cells; Endogenous CD94 on primary cells (healthy-donor PBMC NK cells, CLPD-NK and T-LGLL patient cells), where it pairs with NKG2A or NKG2C; also called KLRD1; Natural killer cells antigen CD94
T1 sequence (looked up): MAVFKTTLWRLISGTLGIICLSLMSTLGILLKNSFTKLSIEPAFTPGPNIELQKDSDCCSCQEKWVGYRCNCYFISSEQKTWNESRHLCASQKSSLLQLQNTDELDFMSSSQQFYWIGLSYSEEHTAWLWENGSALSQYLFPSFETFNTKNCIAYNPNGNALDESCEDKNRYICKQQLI
Protocol: Healthy donor PBMCs were seeded in 96-well plates at a density of 100,000 cells per well, incubated with human Fc block (Biolegend) and cell viability dye (Thermo Fisher) for 30 minutes on ice and protected from light. The cells were washed once with FACS buffer (PBS with 2% IgG low FBS). anti-CD94 antibodies at EC80 concentrations were incubated with cells for 30 minutes on ice and protected from light. After incubation with the anti-CD94 antibodies, the cells were washed and incubated with HLA-E tetramer PE (Creative Biolabs), anti-CD3 pacific blue-labelled, and anti-CD56 FITC-labelled antibodies (Biolegend) for 30 minutes on ice and protected from light. The cells then received a final wash in FACS buffer before quantification on the Cytoflex (Beckman Coulter). All data acquisition and fluorescence compensation were performed using CytoFlex (Beckman Coulter, Atlanta, Ga.). Data analysis was performed using FlowJo software. NK cells were identified through gating on lymphocytes on the forward and side scatter, followed by doublet and dead cell exclusion, and gated on the CD3−CD56+ population. HLA-E expression was then quantified on the CD3−CD56+NK cell population. Percent blocking was calculated as 100−((percent HLA-E positive for anti-CD94 antibody)/(percent HLA-E positive for isotype)*100).
Healthy donor PBMCs were incubated with anti-CD94 antibodies. PE labeled HLA-E tetramer was then incubated with cells and antibody mixture and detected by flow cytometry.
Percent blocking was calculated as 100−((percent HLA-E positive for anti-CD94 antibody)/(percent HLA-E positive for isotype)*100). If an antibody blocked more than 20% of HLA-E binding, it was considered a ligand-blocking antibody.

[2] = biological target: T1, human CD94; test: flow cytometry titration (100 nM to 0.046 nM) on healthy-donor PBMCs, CD3-CD56bright NK cells; column 'Affinity on human NK cells (nM)'
[3] = biological target: T1, human CD94; test: cell-based or functional assay

| Binder | percent HLA-E blocking [1] | EC50 [2] | IC50 of CLPD-NK leukemic cell depletion, ADCC assay with CLPD-NK patient PBMCs [3] | IC50 of NK cell depletion, ADCC assay with healthy donor PBMCs [3] |
| --- | --- | --- | --- | --- |
| B1 | 18% | 10 nM |  |  |
| B2 | 39% | 1.12 nM |  |  |
| B3 | 0% | 27 nM |  |  |
| B4 | 10% | 0.32 nM |  |  |
| B5 | 77% | 0.31 nM |  |  |
| B6 |  |  | 0.059 µg/mL | 0.02 µg/mL |
| B7 | 96% | 2.8 nM |  |  |
